One may read the EC50 as the concentration at which the effect is half-maximal. A word on the Kd: it is the free concentration of one partner at which half of the binding sites on the other are occupied at equilibrium, for simple one-to-one binding. Higher therefore signals weaker binding. For orientation: koff means the first-order rate constant of dissociation. Higher therefore signals fast dissociation. One may read the kon as the second-order rate constant of association. Read a high kon as faster complex formation.

The chains are these.
B1: p53-sc-mTNFR2 (mouse) (ligand)
chain: KKPLDGEYFTLQIRGRERFEMFRELNEALELKDAQAGKEPGAPGGGSGGGSGGGSGGGSGGGSGGSGIRSDKPVAHVVANHQVEEQLEWLSQRANALLANGMDLKDNQLVVPADGLYLVYSQVLFKGQGCPDYVLLTHTVSRFAISYQEKVNLLSAVKSPCPKDTPEGAELKPWYEPIYLGGVFQLEKGDQLSAEVNLPKYLNFRESGQVYFGVIALGGGGSSSDKPVAHVVANHQVEEQLEWLSQRANALLANGMDLKDNQLVVPADGLYLVYSQVLFKGQGCPDYVLLTHTVSRFAISYQEKVNLLSAVKSPCPKDTPEGAELKPWYEPIYLGGVFQLEKGDQLSAEVNLPKYLNFRESGQVYFGVIALGGGGSSSDKPVAHVVANHQVEEQLEWLSQRANALLANGMDLKDNQLVVPADGLYLVYSQVLFKGQGCPDYVLLTHTVSRFAISYQEKVNLLSAVKSPCPKDTPEGAELKPWYEPIYLGGVFQLEKGDQLSAEVNLPKYLNFRESGQVYFGVIAL
notes: Dodecavalent tetramer of four subunits
B2: GCN4-sc-mTNFR2 (mouse) (ligand)
chain: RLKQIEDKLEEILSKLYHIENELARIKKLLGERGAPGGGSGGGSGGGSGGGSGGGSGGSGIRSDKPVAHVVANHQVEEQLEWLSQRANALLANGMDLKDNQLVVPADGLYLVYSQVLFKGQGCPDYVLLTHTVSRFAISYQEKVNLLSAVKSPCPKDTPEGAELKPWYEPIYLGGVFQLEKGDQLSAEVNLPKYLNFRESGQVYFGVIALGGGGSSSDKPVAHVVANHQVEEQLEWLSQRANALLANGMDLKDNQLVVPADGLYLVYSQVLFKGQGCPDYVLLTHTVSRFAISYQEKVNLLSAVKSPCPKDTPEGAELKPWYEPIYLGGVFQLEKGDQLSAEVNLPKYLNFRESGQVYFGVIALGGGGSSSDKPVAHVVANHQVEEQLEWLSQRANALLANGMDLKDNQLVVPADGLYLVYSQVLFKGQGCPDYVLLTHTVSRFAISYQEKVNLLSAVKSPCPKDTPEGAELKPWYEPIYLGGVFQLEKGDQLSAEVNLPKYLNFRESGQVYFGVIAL
notes: as for B1
B3: EHD2-sc-mTNFR2 (mouse) (ligand)
chain: DFTPPTVKILQSSCDGGGHFPPTIQLLCLVSGYTPGTINITWLEDGQVMDVDLSTASTTQEGELASTQSELTLSQKHWLSDRTYTCQVTYQGHTFEDSTKKCADSNGGGSGGGSGGGSGGGSGGGSGGSGIRSDKPVAHVVANHQVEEQLEWLSQRANALLANGMDLKDNQLVVPADGLYLVYSQVLFKGQGCPDYVLLTHTVSRFAISYQEKVNLLSAVKSPCPKDTPEGAELKPWYEPIYLGGVFQLEKGDQLSAEVNLPKYLNFRESGQVYFGVIALGGGGSSSDKPVAHVVANHQVEEQLEWLSQRANALLANGMDLKDNQLVVPADGLYLVYSQVLFKGQGCPDYVLLTHTVSRFAISYQEKVNLLSAVKSPCPKDTPEGAELKPWYEPIYLGGVFQLEKGDQLSAEVNLPKYLNFRESGQVYFGVIALGGGGSSSDKPVAHVVANHQVEEQLEWLSQRANALLANGMDLKDNQLVVPADGLYLVYSQVLFKGQGCPDYVLLTHTVSRFAISYQEKVNLLSAVKSPCPKDTPEGAELKPWYEPIYLGGVFQLEKGDQLSAEVNLPKYLNFRESGQVYFGVIAL
notes: Hexavalent dimer of two subunits; also called hexavalent (EHD2-sc-mTNFR2)
B4: p53-scTNFR2 (human) (ligand)
chain: KKPLDGEYFTLQIRGRERFEMFRELNEALELKDAQAGKEPGAPGGGSGGGSGGGSGGGSGGGSGGSEFLASSRTPSDKPVAHVVANPQAEGQLQWLNRRANALLANGVELRDNQLVVPSEGLYLIYSQVLFKGQGCPSTHVLLTHTISRIAVSYQTKVNLLSAIKSPCQRETPEGAEAKPWYEPIYLGGVFQLEKGDRLSAEINRPDYLNFRESGQVYFGIIALGGGGSSSRTPSDKPVAHVVANPQAEGQLQWLNRRANALLANGVELRDNQLVVPSEGLYLIYSQVLFKGQGCPSTHVLLTHTISRIAVSYQTKVNLLSAIKSPCQRETPEGAEAKPWYEPIYLGGVFQLEKGDRLSAEINRPDYLNFRESGQVYFGIIALGGGGSSSRTPSDKPVAHVVANPQAEGQLQWLNRRANALLANGVELRDNQLVVPSEGLYLIYSQVLFKGQGCPSTHVLLTHTISRIAVSYQTKVNLLSAIKSPCQRETPEGAEAKPWYEPIYLGGVFQLEKGDRLSAEINRPDYLNFRESGQVYFGIIAL
B5: mouse single-chain TNF variant (D221N/A223R, sc-mTNFR2) (ligand)
chain: SDKPVAHVVANHQVEEQLEWLSQRANALLANGMDLKDNQLVVPADGLYLVYSQVLFKGQGCPDYVLLTHTVSRFAISYQEKVNLLSAVKSPCPKDTPEGAELKPWYEPIYLGGVFQLEKGDQLSAEVNLPKYLNFRESGQVYFGVIALGGGGSSSDKPVAHVVANHQVEEQLEWLSQRANALLANGMDLKDNQLVVPADGLYLVYSQVLFKGQGCPDYVLLTHTVSRFAISYQEKVNLLSAVKSPCPKDTPEGAELKPWYEPIYLGGVFQLEKGDQLSAEVNLPKYLNFRESGQVYFGVIALGGGGSSSDKPVAHVVANHQVEEQLEWLSQRANALLANGMDLKDNQLVVPADGLYLVYSQVLFKGQGCPDYVLLTHTVSRFAISYQEKVNLLSAVKSPCPKDTPEGAELKPWYEPIYLGGVFQLEKGDQLSAEVNLPKYLNFRESGQVYFGVIAL
notes: Trivalent single chain; also called TNFR2-selective mouse TNF variant; trivalent (sc-mTNFR2)

The target in the first test is T1, TNFR2 on primary mouse cells (thymocytes and CD3+ T cells of C57BL/6 mice) (mouse, UniProt P25119 23-474).
T1 sequence (looked up): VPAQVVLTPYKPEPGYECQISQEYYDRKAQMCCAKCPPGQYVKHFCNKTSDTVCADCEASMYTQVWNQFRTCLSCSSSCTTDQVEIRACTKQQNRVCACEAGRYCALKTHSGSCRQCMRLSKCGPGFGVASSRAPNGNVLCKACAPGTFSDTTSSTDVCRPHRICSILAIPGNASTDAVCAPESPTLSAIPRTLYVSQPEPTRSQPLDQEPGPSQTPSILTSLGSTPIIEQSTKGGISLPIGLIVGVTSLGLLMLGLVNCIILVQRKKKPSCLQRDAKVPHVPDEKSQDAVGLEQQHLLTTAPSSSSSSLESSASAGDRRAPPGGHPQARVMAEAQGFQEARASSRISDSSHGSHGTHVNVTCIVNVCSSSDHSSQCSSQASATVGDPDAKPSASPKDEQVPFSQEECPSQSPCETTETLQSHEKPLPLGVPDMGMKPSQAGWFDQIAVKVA
In words: cell-based or functional assay.
As to B1, the “EC50 values (nM) of thymocyte proliferation induction (MTT assay)” value (from here on “EC50 values (nM) … (MTT assay)”) came out at 0.065 nM.
B2: the “EC50 values (nM) … (MTT assay)” value is 0.0185 nM.
With B3, the “EC50 values (nM) … (MTT assay)” value worked out at 0.07 nM.

A further test has as its target T2, human TNFR2-Fc fusion protein (human, UniProt P20333 23-257).
T2 construct: also called huTNFR2-Fc; huTNFR2
T2 sequence (looked up): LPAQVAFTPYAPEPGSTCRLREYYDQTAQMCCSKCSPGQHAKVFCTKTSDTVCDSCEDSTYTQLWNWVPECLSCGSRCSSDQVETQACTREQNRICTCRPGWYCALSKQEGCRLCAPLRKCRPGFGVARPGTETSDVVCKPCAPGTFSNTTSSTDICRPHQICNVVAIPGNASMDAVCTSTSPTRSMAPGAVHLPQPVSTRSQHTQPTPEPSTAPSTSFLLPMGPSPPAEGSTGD
In words: ELISA, huTNFR2-Fc coated at 1 µg/ml, bound protein detected with anti-TNF F6C5. The method, then: (§1) ELISA plates (Greiner, Frickenhausen, Germany) were coated with huTNFR1-Fc, mTNFR1-Fc, huTNFR2-Fc or mTNFR2-Fc fusion proteins at 1 μg/ml in PBS and incubated at 4° C. overnight. Residual binding sites were blocked with 2% skim milk powder in PBS at RT for 2 hours. ScTNFR2 and the complexes were diluted in 2% skim milk powder in PBS and added at concentrations in the range of 10⁻³ to 10 nM and incubated for 1 hour at RT. Between each step, non-bound proteins were removed by washing 4 times with 0.005% Tween-20 in PBS.
(§2) Bound proteins were detected with mouse monoclonal antibodies to TNF (clone F6C5; 1 μg/ml; incubation for 1 hour at RT) and HRP-conjugated anti-mouse IgG antibodies (diluted 1:10000; incubation for 1 hour at RT), followed by incubation with tetramethylbenzidine (TMB) substrate solution. Reaction was stopped by addition of 1 M H₂SO₄ and the absorbance at 450 nm was determined with a Multiskan FC absorbance reader (Thermo Scientific, Karlsruhe, Germany) and data were analyzed using the software Microsoft Excel and GraphPad Prism 4 (GraphPad, La Jolla, Calif.) (FIG. 5). In Table 3, the calculated EC₅₀ values for the binding of TNF, scTNFR2 and the complexes to immobilized huTNFR2 and mTNFR2 based on the ELISA assay are summarized.
On the technique in general: In an ELISA, binding on a coated surface is turned into a signal by an enzyme label.
Molecule B4 came in with an EC50 of 94 pM.

The target of another test is T2, human TNFR2-Fc fusion protein. The test is described as follows: quartz crystal microbalance (Attana Cell 200), human TNFR2-Fc immobilised at high density (270 Hz), 37° C. The method, then:
(§3) Affinities of scTNFR2 and the complexes for human TNFR2-Fc were further determined by quartz crystal microbalance measurements using an Attana Cell 200 (Attana, Stockholm, Sweden). Human TNFR2-Fc was chemically immobilized on a carboxyl sensor chip according to the manufacturer's protocol at a high and low density, respectively. Binding experiments were performed in PBST buffer (PBS, 0.1% Tween 20, pH 7.4) with a flow rate of […] at 37° C. The chip was regenerated with 10 mM Glycine-HCl, pH 2.0. Before each measurement, a baseline was measured which was subtracted from the binding curve. Data were collected using the software provided by Attana for the particular device and analyzed by Attaché Office Evaluation software (Attana, Stockholm, Sweden) and TraceDrawer (Ridgview Instruments, Vange, Sweden) (FIG. 6). In Table 4, binding values for the binding of the hexavalent and dodecavalent mouse complexes to TNFR2 are summarized, which have been calculated based on quartz crystal microbalance measurements on a low density chip. In Table 5, binding values for the binding of the sc-mTNFR2 and the hexavalent and dodecavalent mouse proteins to TNFR2 are summarized, which have been calculated based on quartz crystal microbalance measurements on a high density chip.
In the case of B1, the Kd worked out at 43.7 pM, the koff amounted to 2.69e-05 s⁻¹ and the kon worked out at 616000 M⁻¹ s⁻¹.
The corresponding values for B2 are 52.7 pM, 8.77e-05 s⁻¹ and 1.67e+06 M⁻¹ s⁻¹.
In turn, B5 yielded a Kd of 449 pM, a koff of 0.000399 s⁻¹ and a kon of 808000 M⁻¹ s⁻¹.
The like results for B3 were, in that order, 61.5 pM, 3.74e-05 s⁻¹ and 607000 M⁻¹ s⁻¹.

Another test has the same target. The test is described as follows: quartz crystal microbalance (Attana Cell 200), human TNFR2-Fc immobilised at low density (130 Hz), 37° C. On the procedure: as §3
For the molecule B1, the affinity, expressed as Kd, was 50900 pM; the koff was found to be 0.0651 s⁻¹; the kon came out at 1.28e+06 M⁻¹ s⁻¹.
The corresponding values for B2 are 16100 pM, 0.0347 s⁻¹ and 2.16e+06 M⁻¹ s⁻¹.
For the molecule B3, the Kd was determined as 118000 pM, the koff is 0.063 s⁻¹ and the kon was 533000 M⁻¹ s⁻¹.

For a further test, the target named is T3, TNFR2 on human cells (Kym-1 cells; human CD3+ T cells) (human, UniProt P20333 23-461).
T3 sequence (looked up): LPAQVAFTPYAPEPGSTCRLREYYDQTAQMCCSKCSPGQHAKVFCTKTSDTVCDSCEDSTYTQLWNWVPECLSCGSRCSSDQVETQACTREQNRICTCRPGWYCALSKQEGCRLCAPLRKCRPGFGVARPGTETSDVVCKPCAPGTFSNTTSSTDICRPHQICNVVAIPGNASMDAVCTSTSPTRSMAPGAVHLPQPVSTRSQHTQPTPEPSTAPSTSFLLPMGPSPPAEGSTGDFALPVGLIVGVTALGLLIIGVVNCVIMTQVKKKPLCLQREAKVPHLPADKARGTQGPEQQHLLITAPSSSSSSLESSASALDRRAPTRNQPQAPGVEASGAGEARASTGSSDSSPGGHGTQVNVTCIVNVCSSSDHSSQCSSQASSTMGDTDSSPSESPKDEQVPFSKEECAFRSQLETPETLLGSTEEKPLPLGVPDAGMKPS
The test is described as follows: cell-based or functional assay.
In the case of B1, the “EC50 values (nM) of cell death induction using Kym-1 cells” value worked out at 0.0562 nM.
In the case of B2, the “EC50 values (nM) of cell death induction using Kym-1 cells” value was 0.0057 nM.
The same measure, in the same setting: next, B4: 0.0106 nM; B3: 0.453 nM.

The target of another test is T4, mouse TNFR2-Fc fusion protein (mouse, UniProt P25119 23-258, limits assumed).
T4 construct: also called mTNFR2-Fc; mTNFR2
T4 sequence (looked up): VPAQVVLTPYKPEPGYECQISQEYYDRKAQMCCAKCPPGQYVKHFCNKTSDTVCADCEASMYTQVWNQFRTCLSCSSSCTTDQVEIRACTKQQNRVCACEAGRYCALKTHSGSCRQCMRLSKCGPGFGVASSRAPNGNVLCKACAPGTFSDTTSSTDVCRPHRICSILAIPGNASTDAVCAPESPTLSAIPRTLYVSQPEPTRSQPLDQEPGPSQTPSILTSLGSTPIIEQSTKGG
In words: ELISA, mTNFR2-Fc coated at 1 µg/ml, bound protein detected with anti-TNF F6C5. On the procedure: as §1, §2
Turning to B1, the response was half-maximal at 74.4 pM (EC50).
The same measure, in the same setting: next, B2: 45.2 pM; B5: 1550 pM; B3: 112 pM.

Another test addresses T5, TNFR2 on BV-2 cells (UniProt P25119 23-474, limits assumed).
T5 sequence (looked up): T1 sequence (looked up)
The test is described as follows: cell-based or functional assay.
For B1, the “EC50 values (nM) of Cxcl-2 secretion (BV-2 cells, ELISA)” value stood at 0.13 nM.
B2: the “EC50 values (nM) of Cxcl-2 secretion (BV-2 cells, ELISA)” value amounted to 0.03 nM.
The same measure, in the same setting: under B5 stands 1.07 nM; under B3, 0.44 nM.
